Experimental data: the supplement of paper PMC9876800

Tested on: peptide library, one residue held at a place counted from the S/T acceptor
Test: relative phosphorylation of the sub-library (ratio to the mean residue at this position); higher = residue favoured
In short: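 Each biotinylated degenerate peptide sub-library fixed one residue at one position around a central Ser/Thr and was incubated with a purified recombinant kinase, a human or orthologue construct, in 384-well plates. The 90 min reactions, under kinase-specific conditions, contained 50 μM peptide and 50 μM ATP spiked with γ-32P-ATP. Phosphorylation was read by phosphorimaging spots on streptavidin membranes and quantifying them by densitometry. Relative sub-library phosphorylation expresses each value as a ratio to the mean residue at that position.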

Sequence of MAPK14, construct: Full length, human (Q16539 whole entry, looked up): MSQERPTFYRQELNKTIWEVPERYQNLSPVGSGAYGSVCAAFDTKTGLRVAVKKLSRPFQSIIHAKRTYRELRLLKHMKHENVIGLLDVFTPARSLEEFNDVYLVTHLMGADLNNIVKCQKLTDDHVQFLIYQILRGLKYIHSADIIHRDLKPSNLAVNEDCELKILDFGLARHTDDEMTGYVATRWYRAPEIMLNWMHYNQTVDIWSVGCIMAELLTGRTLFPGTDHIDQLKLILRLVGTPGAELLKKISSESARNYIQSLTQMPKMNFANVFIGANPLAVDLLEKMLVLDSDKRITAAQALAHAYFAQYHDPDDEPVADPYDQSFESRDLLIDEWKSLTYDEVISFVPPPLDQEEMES
Sequence of MAPKAPK3, construct: Full length, human (Q16644 whole entry, looked up): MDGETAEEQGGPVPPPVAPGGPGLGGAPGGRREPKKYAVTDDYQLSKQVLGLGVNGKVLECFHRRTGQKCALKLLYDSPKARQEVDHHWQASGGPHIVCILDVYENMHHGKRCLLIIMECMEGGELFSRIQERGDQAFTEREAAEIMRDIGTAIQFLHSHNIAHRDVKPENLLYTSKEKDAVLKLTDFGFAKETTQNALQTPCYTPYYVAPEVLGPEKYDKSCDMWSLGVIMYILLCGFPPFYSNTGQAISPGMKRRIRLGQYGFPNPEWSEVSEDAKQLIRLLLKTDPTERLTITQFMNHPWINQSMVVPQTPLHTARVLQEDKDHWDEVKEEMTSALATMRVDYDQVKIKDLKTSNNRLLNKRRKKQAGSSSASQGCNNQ
Sequence of MARK2, construct: Full length, human (Q7KZI7 whole entry, looked up): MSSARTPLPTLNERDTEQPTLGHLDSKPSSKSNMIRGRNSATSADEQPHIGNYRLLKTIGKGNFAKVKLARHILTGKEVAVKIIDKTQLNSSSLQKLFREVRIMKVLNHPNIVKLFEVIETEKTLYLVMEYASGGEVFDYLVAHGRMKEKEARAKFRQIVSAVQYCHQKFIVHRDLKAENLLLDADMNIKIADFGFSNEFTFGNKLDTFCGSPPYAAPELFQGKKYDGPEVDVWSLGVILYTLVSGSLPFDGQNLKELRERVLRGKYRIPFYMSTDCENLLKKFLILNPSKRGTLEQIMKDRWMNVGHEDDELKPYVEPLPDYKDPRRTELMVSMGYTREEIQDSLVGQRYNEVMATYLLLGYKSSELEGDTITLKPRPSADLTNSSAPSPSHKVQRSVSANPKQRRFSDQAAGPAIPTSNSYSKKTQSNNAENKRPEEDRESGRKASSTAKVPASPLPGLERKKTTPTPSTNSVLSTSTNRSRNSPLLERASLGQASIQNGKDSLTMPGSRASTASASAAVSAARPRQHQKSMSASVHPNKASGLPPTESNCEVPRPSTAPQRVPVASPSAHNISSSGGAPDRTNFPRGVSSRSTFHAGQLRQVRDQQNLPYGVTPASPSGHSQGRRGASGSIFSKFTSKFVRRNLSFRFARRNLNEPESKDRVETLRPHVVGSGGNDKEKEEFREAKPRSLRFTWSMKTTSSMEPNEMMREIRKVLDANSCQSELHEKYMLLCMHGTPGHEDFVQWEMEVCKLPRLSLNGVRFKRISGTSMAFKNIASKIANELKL

MAPK14, construct: Full length, human (from UniProt Q16539)
relative phosphorylation
Details	at +1	at +2	at +3	at +4	at -1	at -2	at -3	at -4	at -5
A fixed	1.53	1.11	1.23	0.76	1.11	1.26	1.35	1.05	0.942
D fixed	0.147	0.674	0.665	0.783	0.616	0.425	0.833	0.947	0.761
E fixed	0.135	0.652	0.727	0.67	0.84	0.319	1.22	0.981	0.935
F fixed	0.403	0.864	1	1.47	0.795	0.59	0.769	1.01	0.997
G fixed	1.24	1.3	1.17	1.05	1.35	0.91	1.67	1.16	1.18
H fixed	0.346	1.11	0.846	0.89	1.06	0.499	1.01	0.859	1
I fixed	0.337	1.29	1.53	0.996	0.649	0.93	0.957	1.16	1.12
K fixed	0.34	1.33	0.654	1.06	0.922	0.594	0.908	1.09	1.24
L fixed	0.412	1.12	0.877	1.07	1.39	1.43	0.87	1.21	1.16
M fixed	0.408	0.967	0.926	1.11	1.55	1.14	1.07	1.15	1.05
N fixed	0.344	0.797	0.611	0.716	0.809	0.548	0.887	0.837	0.785
P fixed	9.61	0.697	1.64	0.88	1.14	4.82	1.27	1.03	1.27
Q fixed	0.277	0.903	0.673	0.895	1.1	0.686	0.892	0.898	0.871
R fixed	0.424	1.44	0.926	1.21	1.42	0.752	1.11	0.959	1.03
V fixed	0.366	1.09	1.43	0.801	0.755	1.09	0.727	0.767	0.757
W fixed	0.37	0.751	1.1	1.42	0.637	0.507	0.64	0.945	0.746
Y fixed	0.31	0.914	0.998	1.21	0.866	0.492	0.807	0.934	1.16
pThr fixed	0.432	1.1	0.892	0.516	0.341	0.619	1.02	0.89	0.939
pTyr fixed	0.397	0.625	1.16	0.674	0.632	0.435	0.834	0.943	1.33

MAPKAPK3, construct: Full length, human (from UniProt Q16644)
relative phosphorylation
Details	at +1	at +2	at +3	at +4	at -1	at -2	at -3	at -4	at -5
A fixed	0.674	1.05	1.17	1.02	0.861	1.42	0.885	1.11	0.659
D fixed	0.406	1.06	1.47	1.21	0.649	0.266	0.193	0.495	0.203
E fixed	0.637	0.868	1.52	1.02	0.573	0.386	0.222	0.764	0.187
F fixed	1.04	0.749	0.722	0.727	1.05	0.806	0.438	0.896	1.97
G fixed	0.54	0.872	1.5	1.26	0.579	0.968	0.614	0.88	0.453
H fixed	1.26	1.31	1.05	1.01	1.23	0.903	1.34	1.12	0.689
I fixed	1.21	0.813	0.518	0.711	0.838	0.462	0.211	0.795	1.31
K fixed	1.07	0.94	0.807	1.14	1.3	0.927	2.05	1.79	0.646
L fixed	1.05	0.794	0.645	0.823	1.24	1.04	0.314	1.12	1.71
M fixed	1.31	0.826	0.675	0.84	1.21	1.5	0.487	1.26	1.2
N fixed	1.08	1.26	1.13	1.16	1.13	0.857	0.682	0.76	0.361
P fixed	0.229	1.27	1.82	1.54	1.22	0.638	0.883	0.627	1.15
Q fixed	1.21	1.13	1.01	1.15	0.973	2.92	0.919	1.13	0.688
R fixed	1.7	1.26	0.851	1.04	1.23	1.6	6.2	1.64	1.41
V fixed	1.45	0.974	0.707	0.758	0.99	0.724	0.252	0.872	1.13
W fixed	0.878	0.795	0.66	0.919	0.716	0.786	0.796	0.804	2.1
Y fixed	1.24	1.02	0.745	0.67	1.21	0.788	0.521	0.931	1.15
pThr fixed	0.99	0.759	0.687	1.1	0.449	0.345	0.244	0.464	0.333
pTyr fixed	1.79	0.934	1.05	0.812	0.732	0.334	0.233	0.572	0.563

MARK2, construct: Full length, human (from UniProt Q7KZI7)
relative phosphorylation
Details	at +1	at +2	at +3	at +4	at -1	at -2	at -3	at -4	at -5
A fixed	0.661	0.734	0.723	0.42	1.08	2	0.814	1.24	1.05
D fixed	0.564	0.774	2.49	0.401	0.73	0.399	0.458	0.956	0.844
E fixed	0.799	1.09	0.957	0.353	0.654	0.338	0.52	0.924	0.899
F fixed	0.754	0.856	0.934	0.625	0.534	1.35	0.897	0.947	1.07
G fixed	0.6	0.488	0.517	0.388	2.43	1.32	0.775	1.16	0.977
H fixed	0.796	1.06	1.35	0.44	0.834	1.29	1.3	1.11	0.947
I fixed	1.16	0.984	0.682	3.42	0.568	0.511	0.548	0.635	0.932
K fixed	0.738	0.476	0.474	0.271	1.45	0.982	1.86	1.3	1.16
L fixed	1.22	1.16	0.965	5.46	0.755	0.456	0.56	0.727	1.51
M fixed	2.28	1.12	0.896	1.64	0.936	0.711	0.911	0.911	1.11
N fixed	1.12	1.15	2.48	0.37	1.05	0.698	0.734	1.01	0.846
P fixed	0.387	0.616	0.222	0.3	1.24	0.475	0.839	0.884	0.759
Q fixed	1.81	1.2	0.956	0.263	1.26	0.619	0.785	0.933	0.8
R fixed	0.846	0.624	0.454	0.192	1.21	0.926	3.26	1.35	1.3
V fixed	1.52	1.02	0.675	1.55	0.831	0.677	0.544	0.687	0.754
W fixed	0.852	2.63	1.14	0.444	0.674	2.61	1.36	1.28	1.14
Y fixed	0.898	1.02	1.08	0.464	0.77	1.64	0.842	0.947	0.909
pThr fixed	1.29	0.81	0.381	0.287	0.37	0.438	0.518	0.756	0.656
pTyr fixed	0.584	0.583	0.681	0.283	0.688	0.498	0.656	0.746	0.791
